Data: US20210380703A1
Residue numbers refer to the chain shown, from its start.

Assays:
Mouse ACVR2A (mouse) = Mouse ACVR2A (mouse) (UniProt P27038); experiment: ELISA
Human Fc (human) [1] = experiment: ELISA, negative control
human Fc (human) [2] = experiment: ELISA; negative control
human ACVR2A (human) = human ACVR2A (human) (UniProt P27037); experiment: ELISA
human Fc (human) [3] = experiment: ELISA, negative control

Sequence of Mouse ACVR2A (mouse) (P27038 20-135 limits assumed): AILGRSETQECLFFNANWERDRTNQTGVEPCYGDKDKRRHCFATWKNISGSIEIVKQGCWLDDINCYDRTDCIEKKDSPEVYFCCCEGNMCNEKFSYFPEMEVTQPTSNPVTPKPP
Sequence of human ACVR2A (human) (P27037 20-135 limits assumed): as the sequence (P27038 20-135 limits assumed) above, with R20K, I73V counted along it

B1: 369_A03 (antibody, V domains shown)
VH: EVQLLESGGGLVQPGGSLRLSCAASGFTFSSYGMNWVRQAPGKGLEWVSNINYNGGYTGYADSVKGRFTISRDNSKNTLYLQMNSLRAEDTAVYYCARSANWHDTALDYWGQGTLVTVSS
VL: DIQMTQSPSSLSASVGDRVTITCRASQSILTYLNWYQQKPGKAPKLLIYAVTSRHSGVPSRFSGSGSGTDFTLTISSLQPEDFATYYCQQGYDLPLTFGGGTKVEIK
B1 was tested, and the optical density (Mouse ACVR2A (mouse)) was 0.561 OD and the optical density (Human Fc (human) [1]) was 0.347 OD.

B2: 368_F12 (antibody, V domains shown)
VH: B1 VH with S30D, S31D, G33S, S49A, N50S, G55S, T58K, G59S, N101T, A106H
VL: B1 VL with L30V, L47V, V51A, R54L, H55A, G91S
B2 gave an optical density (human Fc (human) [2]) of 0.349 OD.

B3: 370_A06 (antibody, V domains shown)
VH: B1 VH with G33S, S49A, N50S, G55S, T58K, G59S, N101T, A106H
VL: B1 VL with L30V, L47V, V51A, R54L, H55A, G91S
Work on B3 yielded an optical density (human Fc (human) [2]) of 0.331 OD.

B4: 369_F12 (antibody, V domains shown)
VH: B1 VH with G33S, S49A, N50S, G55S, T58K, G59S, N101T, A106H
VL: B1 VL with L30I, T31S, R54L, H55A, G91S, D93E, L94N
In the case of B4, the optical density (human Fc (human) [2]) is reported as 0.434 OD.

B5: 370_C04 (antibody, V domains shown)
VH: B1 VH with S49A, N50S, G55S, G59S, N101T, A106H
VL: B1 VL with T31S, V51A, T52S, R54L, H55Q, G91S, D93E, L94N
B5 was tested, and the optical density (human Fc (human) [2]) was 0.334 OD.

B6: 374_E09 (antibody, V domains shown)
VH: B1 VH with S31D, G33S, N50G, T58K, N101T, A106H
VL: B1 VL with L30V, L47V, V51A, H55A, G91S, L94S
With B6 the optical density (human Fc (human) [2]) was 0.162 OD.

B7: 371_C09 (antibody, V domains shown)
VH: B1 VH with S30D, G33S, N50G, T58K, G59S, N101T, A106H
VL: B1 VL with L33V, V51A, T52S, R54L, H55Q, G91S, L94N
Work on B7 yielded an optical density (human Fc (human) [2]) of 0.308 OD.

B8: 369_B12 (antibody, V domains shown)
VH: B1 VH with S30D, G33S, N50G, T58K, G59S, N101T, A106H
VL: B1 VL with L33V, V51T, R54L, H55A, G91S, L94S
In the case of B8, the optical density (human Fc (human) [2]) is reported as 0.4 OD.

B9: 369_B02 (antibody, V domains shown)
VH: B1 VH with S30D, G33S, N50G, T58K, G59S, N101T, A106H
VL: B1 VL with T31S, L47V, V51A, H55A, G91S, D93N
With B9 the optical density (human Fc (human) [2]) was 0.456 OD.

B10: 365_C09 (antibody, V domains shown)
VH: B1 VH with S31D, N50G, T58K, G59S, N101T, A106H
VL: B1 VL with L30V, T31S, L33V, V51A, H55A, G91S, L94T
Work on B10 yielded an optical density (human Fc (human) [2]) of 0.266 OD.

B11: 374_B09 (antibody, V domains shown)
VH: B1 VH with G33S, N50G, T58K, G59S, N101T, A106H
VL: B1 VL with L30V, T31R, L47V, V51A, R54L, H55A, G91S, D93E
B11 was tested, and the optical density (human Fc (human) [2]) was 0.172 OD.

B12: 374_D12 (antibody, V domains shown)
VH: B1 VH with S30D, G33S, N50G, N101T, A106H
VL: B1 VL with L30V, T31S, L33V, L47V, V51A, H55A, G91S
In the case of B12, the optical density (human Fc (human) [2]) is reported as 0.235 OD.

B13: 374_C02 (antibody, V domains shown)
VH: B1 VH with S30D, G33S, N50G, N101T, A106H
VL: B1 VL with T31S, V51A, G91S, L94S
In the case of B13, the optical density (human Fc (human) [2]) is reported as 0.167 OD.

B14: 374_H08 (antibody, V domains shown)
VH: B1 VH with S30D, G33S, N50G, N101T, A106H
VL: B1 VL with T31S, V51A, R54L, G91S, D93E, L94N
Binder B14 has an optical density (human Fc (human) [2]) of 0.199 OD.

B15: 369_F08 (antibody, V domains shown)
VH: B1 VH with S31D, N35H, N50G, G55S, G59S, S99G
VL: B1 VL with T31S, V51A, T52S, R54L, H55Q, G91S
B15 was tested, and the optical density (Mouse ACVR2A (mouse)) was 0.589 OD, the optical density (human ACVR2A (human)) was 0.503 OD and the optical density (human Fc (human) [3]) was 0.302 OD.
